In patent US20230212587A1, “Mutant Hydroxyphenylpyruvate Dioxygenase Polypeptide, Encoding Gene Thereof and Use Therefor” (Beijing Dabeinong Biotechnology Co., Ltd., priority 2019, published 2023):

Tested on: Arabidopsis thaliana T1 plants
Experiment: Topramezone tolerance of transgenic Arabidopsis thaliana T1 plants (pesticide damage grade by bleached leaf area, score, resistance evaluation)
Assay type: in vivo
Settings: HPPDs from different species, 7 DAT; for Classification and statistics of pesticide damage grade Grade 0 / Classification and statistics of pesticide damage grade Grade 1 / Classification and statistics of pesticide damage grade Grade 2 / Classification and statistics of pesticide damage grade Grade 3: number of plants (of 16) in this grade; for Scores: score for pesticide damage 0-100
Method in brief: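 Herbicide tolerance was judged per plant on a bleaching scale (grade 0 no bleaching to grade 3 fully bleached) 7 DAT. Topramezone doses were 0, 25, 50 and 100 g ai/ha on 18-day-old T1 and wild-type plants.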

| Molecule | Classification and statistics of pesticide damage grade Grade 0 (topramezone 25 g ai/ha (1x)) | Classification and statistics of pesticide damage grade Grade 1 (topramezone 25 g ai/ha (1x)) | Classification and statistics of pesticide damage grade Grade 2 (topramezone 25 g ai/ha (1x)) | Classification and statistics of pesticide damage grade Grade 3 (topramezone 25 g ai/ha (1x)) | Classification and statistics of pesticide damage grade Grade 0 (topramezone 100 g ai/ha (4x)) | Classification and statistics of pesticide damage grade Grade 1 (topramezone 100 g ai/ha (4x)) | Classification and statistics of pesticide damage grade Grade 2 (topramezone 100 g ai/ha (4x)) | Classification and statistics of pesticide damage grade Grade 3 (topramezone 100 g ai/ha (4x)) | Scores (topramezone 25 g ai/ha (1x)) | Scores (topramezone 100 g ai/ha (4x)) | Resistance evaluation (topramezone 25 g ai/ha (1x)) | Resistance evaluation (topramezone 100 g ai/ha (4x)) |
| --- | --- | --- | --- | --- | --- | --- | --- | --- | --- | --- | --- | --- |
| N2HPPD-02: native Sphingobium sp. N2 HPPD, SEQ ID NO: 153 (protein, N2HPPD Amino Acid Sequence (Sphingobacterium)) MTLFDNPLGLDGFEFVEFSAPAKGMLEPVFAAMGFVMIARHRSKDVQLWRQGGINLIANYEPRSPAAYFAAEHGPSACGMGWRVRNAAKAYELAVERGAEPVDVKTGPMELRLPAIRGIGGSIIYLIDRYEDEDGGLSIYDIDFVYEPGVDRHPEGAGFKIIDHLTHNVYGGRMAHWASFYERVFGFREIRYFDIKGEYTGLTSKAMTAPDGKIRIPLNEEGKAGGGQIEEFLRAYNGEGIQHIAFLCDDLIAAWDKLKALGTPLMTAPPATYYEMLDERLPGHGEPVAELQKRGILLDGSTQQGDPRLLLQIFGQATIGPVFFEFIQRKKDEGFGEGNFTALFESMERDQLRRGTLNAGESA | 0 | 1 | 15 | 0 | 0 | 0 | 0 | 16 | 65 | 100 | poorly resistant (poorly resistant plants (scores 34-67)) | non-resistant (non-resistant plants (scores 68-100)) |
| N2HPPDm-F372A-02: Sphingobium sp. N2 HPPD mutant F372A, SEQ ID NO: 156 (protein, N2HPPDm-F372A Amino Acid Sequence) MTLFDNPLGLDGFEFVEFSAPAKGMLEPVFAAMGFVMIARHRSKDVQLWRQGGINLIANYEPRSPAAYFAAEHGPSACGMGWRVRNAAKAYELAVERGAEPVDVKTGPMELRLPAIRGIGGSIIYLIDRYEDEDGGLSIYDIDFVYEPGVDRHPEGAGFKIIDHLTHNVYGGRMAHWASFYERVFGFREIRYFDIKGEYTGLTSKAMTAPDGKIRIPLNEEGKAGGGQIEEFLRAYNGEGIQHIAFLCDDLIAAWDKLKALGTPLMTAPPATYYEMLDERLPGHGEPVAELQKRGILLDGSTQQGDPRLLLQIAGQATIGPVFFEFIQRKKDEGFGEGNFTALFESMERDQLRRGTLNAGESA | 16 | 0 | 0 | 0 | 16 | 0 | 0 | 0 | 0 | 0 | highly resistant (highly resistant plants (scores 0-15)) | highly resistant (highly resistant plants (scores 0-15)) |
| N3HPPD-02: native Burkholderia sp. N3 HPPD, SEQ ID NO: 159 (protein, N3HPPD Amino Acid Sequence (Burkholderia)) MQIPNWENPVGTDGFEFIEYTAPDPKALGQLFERMGFTAIARHRHKDVTVYRQGDINFIINAEPHSFAQRFARLHGPSICAIAFRVQDAAKAYQHALELGAWGFDNKTGPMELNIPAIKGIGDSLIYFVDRWRGKNGAQPGAIGDISIYDVDFEPIAGANPNPAGHGLTYIDHLTHNVHRGRMQEWAEFYERLFNFREVRYFDIEGKVTGVKSKAMTSPCGKIRIPINEEGSDTAGQIQEYLDAYHGEGIQHIALGTNDIYGAVDGLRGKEVKLLDTIDTYYELVDRRVPDHGESLDELKKRKILIDGARDDLLLQIFTENQIGPIFFEIIQRKGNQGFGEGNFKALFESIELDQIRRGVVQDKA | 0 | 6 | 8 | 2 | 0 | 0 | 0 | 16 | 58 | 100 | poorly resistant (poorly resistant plants (scores 34-67)) | non-resistant (non-resistant plants (scores 68-100)) |
| TaHPPD-02: native Triticum aestivum HPPD, SEQ ID NO: 39 (protein, listed as Triticum aestivum, TaHPPD Amino Acid Sequence) MPPTPTTPAATGAGAAAAVTPEHARPRRMVRFNPRSDRFHTLSFHHVEFWCADAASAAGRFAFALGAPLAARSDLSTGNSVHASQLLRSGNLAFLFTAPYANGCDAATASLPSFSADAARRFSADHGLAVRSIALRVADAAEAFRASVDGGARPAFSPVDLGRGFGFAEVELYGDVVLRFVSHPDGTDVPFLPGFEGVSNPGAVDYGLTRFDHVVGNVPELASAAAYVAGFTGFHEFAEFTTEDVGTAESGLNSMVLANNSEGVLLPLNEPVHGTKRRSQIQTFLEHHGGPGVQHIAVASSDVLRTLREMRARSAMGGFDFLPPPLPKYYEGVRRIAGDVLSEAQIKECQELGVLVDRDDQGVLLQIFTKPVGDRPTLFLEMIQRIGCMEKDERGEEYQKGGCGGFGKGNFSELFKSIEDYEKSLEAKQSAAVQGS | 0 | 0 | 0 | 16 | 0 | 0 | 0 | 16 | 100 | 100 | non-resistant (non-resistant plants (scores 68-100)) | non-resistant (non-resistant plants (scores 68-100)) |
| N1HPPD-02: native Sphingobium sp. N1 HPPD, SEQ ID NO: 147 (protein, N1HPPD Amino Acid Sequence (Sphingobacterium)) MAADSENPLGLHGFAFAEFTSPDPAAMARQFEQLGFVPAARRKDRGLTLYRQGRIAFILNAGEGEQASAFRAAHGPSANGMAFNVADAKAAHRHAIQSGATDADTAQSALPGTYAIEGIGDSLLYLVDSDPFADWDEVPGWREASAERGVGLDLLDHLTHNVRRGQMRVWSEFYATLFGFEEQKFFDIKGQATGLFSQAMIAPDHEIRIPLNESQDDNSQIEEFIREYNGEGIQHLALTTPDIYSTVEKLRANGVRLQDTIDTYYDLVDERVPGHGEDLARLRKNRILIDGDVHDEGLLLQIFTETMFGPIFFEIIQRKGNEGFGNGNFQVLYESIELDQIRRGVVTVDA | 2 | 12 | 1 | 1 | 0 | 4 | 8 | 4 | 35 | 67 | poorly resistant (poorly resistant plants (scores 34-67)) | poorly resistant (poorly resistant plants (scores 34-67)) |
| N1HPPDm-F372A-02: Sphingobium sp. N1 HPPD mutant F372A, SEQ ID NO: 150 (protein, N1HPPDm-F372A Amino Acid Sequence) MAADSENPLGLHGFAFAEFTSPDPAAMARQFEQLGFVPAARRKDRGLTLYRQGRIAFILNAGEGEQASAFRAAHGPSANGMAFNVADAKAAHRHAIQSGATDADTAQSALPGTYAIEGIGDSLLYLVDSDPFADWDEVPGWREASAERGVGLDLLDHLTHNVRRGQMRVWSEFYATLFGFEEQKFFDIKGQATGLFSQAMIAPDHEIRIPLNESQDDNSQIEEFIREYNGEGIQHLALTTPDIYSTVEKLRANGVRLQDTIDTYYDLVDERVPGHGEDLARLRKNRILIDGDVHDEGLLLQIATETMFGPIFFEIIQRKGNEGFGNGNFQVLYESIELDQIRRGVVTVDA | 16 | 0 | 0 | 0 | 16 | 0 | 0 | 0 | 0 | 0 | highly resistant (highly resistant plants (scores 0-15)) | highly resistant (highly resistant plants (scores 0-15)) |
